Laboratory results published in paper doi:10.1101/2020.07.14.203299 (bioRxiv, 2020).

B1: GST-FliJ(Δ13–24) (natural protein, Salmonella enterica serovar Typhimurium, UniProt P0A1K1 1-147, looked up)
chain: MAQHGALETLKDLGEMRRGCQQAEEQLKMLIDYQNEYRSNLNTDMGNGIASNRWINYQQFIQTLEKAIEQHRLQLTQWTQKVDLALKSWREKKQRLQAWQTLQDRQTAAALLAENRMDQKKMDEFAQRAAMRKPE
B2: His-FlgN (natural protein, Salmonella enterica serovar Typhimurium, UniProt P0A1J7 1-140, looked up)
chain: MTRLSEILDQMTTVLNDLKTVMDAEQQQLSVGQINGSQLQRITEEKSSLLATLDYLEQQRRLEQNAQRSANDDIAERWQAITEKTQHLRDLNQHNGWLLEGQIERNQQALEVLKPHQEPTLYGADGQTSVSHRGGKKISI

Experiments:
His-FlgN = biological target: B2; test: SPR
GST-FliJ (purified) = biological target: T1, GST-FliJ (purified) (Salmonella enterica serovar Typhimurium, UniProt P0A1K1 1-147); test: SPR
T1 sequence (looked up): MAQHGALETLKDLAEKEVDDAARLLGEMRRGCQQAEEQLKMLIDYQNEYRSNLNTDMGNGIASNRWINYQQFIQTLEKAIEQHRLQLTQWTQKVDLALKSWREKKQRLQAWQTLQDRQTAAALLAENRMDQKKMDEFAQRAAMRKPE

Binder	Kd (His-FlgN)	Kd (GST-FliJ (purified))
B1	7.74 ± 0.12 µM	–
B2	–	27.4 ± 13 µM
